We go through four molecules from US20030073629A1, “Omi and domains thereof that disrupt IAP-caspase interaction” (priority 2001, published 2003).

For assay [1], the target named is T1, GST-BIR3 fusion protein (BIR3 domain of human XIAP) (Homo sapiens, UniProt P98170).
T1 construct: Omi associates directly with the BIR3 domain of XIAP
Description: Interaction of purified recombinant proteins with GST-BIR3 fusion protein (SDS-PAGE, Coomassie). The format is binding. The settings on record: purified C-terminal His6-tagged recombinant protein; wild type GST-BIR3. From the text: (§1) FIGS. 7A and 7B are scanned images of Coomassie stained gels representing SDS-PAGE analysis of purified C-terminal His6-tagged recombinant wild type mature Omi (WT), Omi-ΔAVPS, Omi-S306A, and mature Smac (7A) and recombinant Omi and Smac proteins with GST-BIR1, GST-BIR2, GST-BIR3, or GST-BIR3-E314S fusion proteins (7B).
(§2) To determine whether a recombinant Omi lacking the first 133 residues (mature Omi) can interact with the GST-BIR3 fusion protein, this protein was expressed with a C-terminal His6 tag in bacteria and purified to apparent homogeneity (see FIG. 7B). […] FIGS. 7A and 7B show scanned images of Coomassie stained gels representing SDS-PAGE analysis of purified C-terminal His6-tagged recombinant wild type mature Omi (WT), Omi-ΔAVPS, Omi-S306A, and mature Smac (FIG. 7A) and recombinant Omi and Smac proteins with GST-BIR1, 2, GST-BIR3 or GST-BIR3-E314S fusion proteins (FIG. 7B).

The target in another assay is T2, cIAP2 (Homo sapiens, UniProt Q13489).
T2 construct: made in house; host or cells: in vitro translation (cell-free)
T2 sequence (Q13489 whole entry, species assumed): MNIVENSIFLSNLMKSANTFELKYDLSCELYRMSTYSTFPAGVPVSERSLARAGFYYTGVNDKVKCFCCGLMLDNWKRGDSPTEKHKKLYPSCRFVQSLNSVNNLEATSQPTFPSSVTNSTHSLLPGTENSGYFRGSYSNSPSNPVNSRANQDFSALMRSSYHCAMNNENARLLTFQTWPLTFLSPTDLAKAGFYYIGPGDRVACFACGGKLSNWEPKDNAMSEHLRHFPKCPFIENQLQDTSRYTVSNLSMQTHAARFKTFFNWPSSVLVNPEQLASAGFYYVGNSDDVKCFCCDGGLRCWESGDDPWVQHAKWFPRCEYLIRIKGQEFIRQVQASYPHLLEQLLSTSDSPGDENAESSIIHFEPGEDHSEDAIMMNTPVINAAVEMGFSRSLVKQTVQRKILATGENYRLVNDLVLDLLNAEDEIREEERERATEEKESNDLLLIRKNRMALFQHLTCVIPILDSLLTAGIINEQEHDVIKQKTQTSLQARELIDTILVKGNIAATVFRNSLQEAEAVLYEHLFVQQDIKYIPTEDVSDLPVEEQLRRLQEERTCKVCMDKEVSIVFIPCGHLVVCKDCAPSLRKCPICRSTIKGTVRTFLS
Description: In vitro interaction of immobilized His6-tagged protein with 35S-labeled cIAP2. The format is binding. The note with it: immobilized on Talon-affinity resin; in vitro-translated 35S-labeled cIAP2. Here is the method:
(§3) FIG. 8 is a scanned image of an autoradiogram representing SDS-PAGE analysis of interaction of XIAP, cIAP1, and cIAP2 with mature Omi and Smac. Immobilized C-terminal His6-tagged mature Omi or Smac, or GST protein was incubated with in vitro-translated ^35S-labeled XIAP (first panel), cIAP1 (second panel), or cIAP2 (third panel). The fourth panel is a scanned image of a Coomassie stained gel of the immobilized proteins.
(§4) C-terminal His6-tagged mature Omi or Smac, or a GST protein were immobilized onto Talon-affinity resin. The bound resins were incubated with in vitro-translated ^35S-labeled XIAP (first panel), cIAP1 (second panel) or cIAP2 (third panel), washed extensively, and then analyzed by SDS polyacrylamide gel electrophoresis and autoradiography. GST was used as a negative control (second lane of each panel). The fourth panel, represents a scanned image of a Coomassie stained gel of the immobilized proteins. […] The in vitro assays were performed as described in Srinivasula, S. M. et al., J Biol Chem 275:36152-36157, 2000.

For another assay, the target named is T3, GST-BIR3-E314S mutant (Homo sapiens, UniProt P98170, E314S).
T3 construct: Omi associates directly with the BIR3 domain of XIAP
T3 sequence (P98170 238-358 E314S limits assumed): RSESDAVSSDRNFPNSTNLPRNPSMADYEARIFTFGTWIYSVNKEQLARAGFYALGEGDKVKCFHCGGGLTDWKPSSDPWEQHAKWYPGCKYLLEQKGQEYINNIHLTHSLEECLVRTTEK
Description: Interaction of purified recombinant proteins with GST-BIR3-E314S mutant. The format is binding. The settings on record: purified C-terminal His6-tagged recombinant protein.
Text: as §1
To confirm that Omi associates directly with the BIR3 domain of XIAP but not with the Smac protein, Smac was depleted from the 293 extracts using a Smac monoclonal antibody. Specifically, 293 cellular extracts were either left untreated (undepleted lane of FIG. 4) or depleted with a Smac antibody (lane depleted of FIG. 4). The undepleted and depleted extracts were incubated with the GST-BIR3 protein and the bound proteins were eluted as above. The eluates were then analyzed by far-western blotting with ^35S-XIAP and by western blotting with the Smac antibody as described above (see FIG. 4, left and right panels, respectively). […] The last lane of each panel in FIG. 4 represents the 293 cellular extracts that were bound to the E314S mutant GST-BIR3 fusion protein. […] The asterisk in FIG. 4 indicates non-specific bands and the arrow indicates the IgG band. […]

The next assay concerns the target T4, cIAP1 (Homo sapiens, UniProt Q13490).
T4 construct: made in house; host or cells: in vitro translation (cell-free)
Description: In vitro interaction of immobilized His6-tagged protein with 35S-labeled cIAP1. The settings on record: immobilized on Talon-affinity resin; in vitro-translated 35S-labeled cIAP1. It is filed as binding. The procedure: as §3, §4

The subject of assay [2] is GST-BIR1, 2 fusion protein. Description: Interaction of purified recombinant proteins with GST-BIR1, 2 fusion protein. The settings on record: purified C-terminal His6-tagged recombinant protein. The format is binding, human.
Chain of GST-BIR1, 2 fusion protein (P98170 124-240 limits assumed): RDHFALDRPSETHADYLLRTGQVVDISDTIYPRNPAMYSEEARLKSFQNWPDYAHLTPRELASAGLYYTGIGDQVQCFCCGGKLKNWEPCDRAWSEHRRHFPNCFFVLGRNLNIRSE
Text: as §1, §2

The target in another assay is T5, endogenous XIAP (Homo sapiens, UniProt P98170).
T5 construct: endogenous in cells; host or cells: 293T cells
T5 sequence (P98170 whole entry): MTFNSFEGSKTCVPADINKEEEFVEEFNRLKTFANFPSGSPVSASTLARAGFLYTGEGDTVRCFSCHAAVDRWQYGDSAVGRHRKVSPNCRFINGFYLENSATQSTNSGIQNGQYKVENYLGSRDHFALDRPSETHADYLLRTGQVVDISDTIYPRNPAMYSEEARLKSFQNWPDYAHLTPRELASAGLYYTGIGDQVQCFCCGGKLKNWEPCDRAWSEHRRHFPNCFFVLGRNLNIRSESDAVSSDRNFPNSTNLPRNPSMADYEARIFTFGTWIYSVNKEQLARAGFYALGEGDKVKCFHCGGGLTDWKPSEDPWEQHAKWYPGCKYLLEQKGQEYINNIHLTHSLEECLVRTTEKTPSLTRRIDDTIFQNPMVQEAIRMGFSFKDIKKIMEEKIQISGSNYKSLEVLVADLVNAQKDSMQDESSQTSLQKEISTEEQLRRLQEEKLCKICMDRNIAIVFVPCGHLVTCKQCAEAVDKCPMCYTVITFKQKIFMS
Description: Co-immunoprecipitation with endogenous XIAP in transfected 293T cells. The format is cell-based. The note with it: 293T cells transfected with C-terminal Flag-tagged Omi precursors, XIAP western blot. From the text:
FIG. 9 is a scanned image of a blot representing western blot analysis using an XIAP monoclonal antibody (upper panel) or Flag antibody (middle panel) of 293T cells transfected with constructs encoding C-terminal Flag-tagged Omi wild type or mutant precursors and immunoprecipitated with Flag antibody. The lower panel is a scanned image of a blot representing total extracts probed with the XIAP antibody. Arrows indicate IgG bands.

Assay [3] has as its target T6, caspase-9 interaction with XIAP (procaspase-3 activation) (Homo sapiens, UniProt P98170).
T6 construct: caspase-9: endogenous in 293T/HEK293 S100 extract
Description: Procaspase-3 activation in XIAP-containing S100 extracts stimulated with cytochrome c and dATP. It is filed as biochemical. The note with it: S100 extracts with purified XIAP, cytochrome c plus dATP; 10, 50 or 300 ng protein. The procedure:
FIG. 17 is a scanned image of an autoradiogram, representing SDS-PAGE analysis of ^35S-labeled procaspase-3 following stimulation of 293T S100 extracts (20μg) mixed with purified XIAP (50 ng) with cytochrome c (0.5 μg) plus dATP (1 mM), in the presence of increasing amounts (10, 50, or 300 ng, respectively) of purified mature WT Omi, Omi-ΔAVPS, Omi-S306A, or mature Smac in 10 μl reaction volume. In the fifth lane, S100 extracts were incubated with. 300 ng of WT Omi without XIAP.
Next, it was determined whether Omi, like Smac, promotes caspase-9 activity in HEK293 S100 extracts in the presence of XIAP. To measure the caspase-9 activity in these extracts, ^35S-labeled procaspase-3 was added to the S100 extracts and stimulated the extracts with cytochrome c and dATP. […] These observations indicate that Omi, like Smac, is able to disrupt the interaction of caspase-9 with XIAP in the S100 extracts to promote procaspase-3 activation.

In assay [4] the test system is MCF-7 cells. Description: TRAIL-induced apoptosis of MCF-7 cells transfected with GFP-IETD-Omi constructs. The format is cell-based. The settings on record: TRAIL for 16 hours, 24 hours following transfection; versus GFP transfected control cells. Here is the method:
FIG. 20 provides schematic diagrams of the Omi-GFP and GFP-IETD-Omi constructs used to assay the ability of Omi to induce apoptosis or to enhance apoptosis by other stimuli.
FIG. 25 is a bar graphic representation of the percentages of the determined round apoptotic MCF-7 cells that were left untreated (−) or treated with TRAIL (+) for 16 hours 24 hours following transfection with the indicated expression constructs.
(§5) Next, the contribution of the IAP binding activity of Omi to its proapoptotic activity was tested. The MTS of Omi was replaced with a GFP-IETD sequence and mutated at its active site Ser306 to Ala (FIG. 20, GFP-IETD-AVP). Of note, the presence of the IETD sequence between GFP and Omi-S/A allowed caspase-dependent cleavage at the IETD site after the Asp residue and release of mature Omi-S/A in the cytosol of the transfected 293 and MCF-7 cells (FIG. 23). […] Taken together, Omi not only can induce apoptosis through its serine protease activity but also via its ability to bind and neutralize IAPs.

Another assay has as its target T7, XIAP-BIR3 (Homo sapiens, UniProt P98170).
T7 construct: Omi associates directly with the BIR3 domain of XIAP
Description: GST-BIR3 precipitation of extracts of transfected 293T cells. It is filed as binding. The note with it: 24 hours after transfection. Here is the method: FIG. 24 is a scanned image of an immunoblot with Flag-HRP antibody of 293T cells extracts precipitated with GST-BIR3 24 hours after transfection with the indicated expression constructs extracts.
as §5

The subject of assay [5] is MCF-7 cells. Description: Immunofluorescence confocal microscopy of Omi in MCF-7 cells. It is filed as cell-based. The settings on record: TRAIL 1 μg/ml; untreated cells mostly punctate and perinuclear.

T1 sequence (P98170 238-358 limits assumed): as the sequence (P98170 238-358 E314S limits assumed) above, with S77E counted along it
T7 sequence (P98170 238-358 limits assumed): as the sequence (P98170 238-358 E314S limits assumed) above, with S77E counted along it
T4 sequence (Q13490 whole entry, species assumed): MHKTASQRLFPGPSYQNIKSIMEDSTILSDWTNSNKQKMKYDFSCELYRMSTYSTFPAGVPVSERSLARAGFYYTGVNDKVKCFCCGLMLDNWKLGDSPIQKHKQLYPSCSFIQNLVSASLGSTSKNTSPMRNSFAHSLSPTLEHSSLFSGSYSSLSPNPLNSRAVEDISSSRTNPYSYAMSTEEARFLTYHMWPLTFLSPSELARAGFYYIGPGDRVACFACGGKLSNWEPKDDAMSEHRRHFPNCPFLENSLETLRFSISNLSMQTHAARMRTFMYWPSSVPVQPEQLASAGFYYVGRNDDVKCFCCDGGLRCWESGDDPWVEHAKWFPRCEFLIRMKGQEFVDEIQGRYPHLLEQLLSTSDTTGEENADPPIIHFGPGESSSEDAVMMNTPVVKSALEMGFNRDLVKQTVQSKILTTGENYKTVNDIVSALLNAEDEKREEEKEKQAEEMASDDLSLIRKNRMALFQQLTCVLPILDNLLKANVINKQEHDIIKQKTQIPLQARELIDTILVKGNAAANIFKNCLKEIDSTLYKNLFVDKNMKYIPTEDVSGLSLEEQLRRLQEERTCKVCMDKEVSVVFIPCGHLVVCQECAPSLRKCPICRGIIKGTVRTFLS
T6 sequence (P98170 whole entry): as the sequence (P98170 whole entry) above

B1: mature Omi: Omi polypeptide comprising residues 134-458 of SEQ ID NO:1; recombinant with C-terminal His6 tag (protein, listed as Homo sapiens)
chain: AVPSPPPASPRSQYNFIADVVEKTAPAVVYIEILDRHPFLGREVPISNGSGFVVAADGLIVTNAHVVADRRRVRVRLLSGDTYEAVVTAVDPVADIATLRIQTKEPLPTLPLGRSADVRQGEFVVAMGSPFALQNTITSGIVSSAQRPARDLGLPQTNVEYIQTDAAIDFGNSGGPLVNLDGEVIGVNTMKVTAGISFAIPSDRLREFLHRGEKKNSSSGISGSQRRYIGVMMLTLSPSILAELQLREPSFPDVQHGVLIHKVILGSPAHRAGLRPGDVILAIGEQMVQNAEDVYEAVRTQSQLAVQIRRGRETLTLYVTPEVTE
modifications: C-terminal His6 tag
Regarding B1, the “interaction with GST-BIR3 fusion protein” value in [1] is “able to interact equally with the wild type GST-BIR3 protein”. The “interaction with cIAP2” value with cIAP2 was “found to also interact with cIAP1 and cIAP2”. Further, the “interaction with GST-BIR3-E314S mutant” value with GST-BIR3-E314S mutant was “not with the GST-BIR3-E314S mutant”. The “interaction with cIAP1” value with cIAP1 is on record as “found to also interact with cIAP1”. Moreover, in assay [2], the “interaction with GST-BIR1, 2 fusion protein” value was “able to interact with the GST-BIR1, 2 fusion protein”. The “interaction with endogenous XIAP in vivo” value with endogenous XIAP is recorded as “can also interact with endogenous XIAP in vivo”. The “promotion of procaspase-3 activation” value in assay [3] is on record as “able to promote procaspase-3 activation in the XIAP-containing S100 extracts almost to the same extent as Smac”.

B2: GFP-IETD-SSA: GFP-IETD-Omi-S/A with the AVPS motif mutated to SSAS motif (protein)
chain: SSASPPPASPRSQYNFIADVVEKTAPAVVYIEILDRHPFLGREVPISNGSGFVVAADGLIVTNAHVVADRRRVRVRLLSGDTYEAVVTAVDPVADIATLRIQTKEPLPTLPLGRSADVRQGEFVVAMGSPFALQNTITSGIVSSAQRPARDLGLPQTNVEYIQTDAAIDFGNAGGPLVNLDGEVIGVNTMKVTAGISFAIPSDRLREFLHRGEKKNSSSGISGSQRRYIGVMMLTLSPSILAELQLREPSFPDVQHGVLIHKVILGSPAHRAGLRPGDVILAIGEQMVQNAEDVYEAVRTQSQLAVQIRRGRETLTLYVTPEVTE
For B2, the “enhancement of TRAIL-induced apoptosis” value in the assay on MCF-7 cells [4] is recorded as “abolished the apoptotic enhancement activity”. Further, the “binding to XIAP-BIR3 (GST-BIR3)” value with XIAP-BIR3 is “abolished the apoptotic enhancement activity of Omi-S/A and the ability to bind to BIR3”.

B3: GFP-IETD-AVP: Omi with MTS replaced by a GFP-IETD sequence and active site Ser306 mutated to Ala (protein)
chain: AVPSPPPASPRSQYNFIADVVEKTAPAVVYIEILDRHPFLGREVPISNGSGFVVAADGLIVTNAHVVADRRRVRVRLLSGDTYEAVVTAVDPVADIATLRIQTKEPLPTLPLGRSADVRQGEFVVAMGSPFALQNTITSGIVSSAQRPARDLGLPQTNVEYIQTDAAIDFGNAGGPLVNLDGEVIGVNTMKVTAGISFAIPSDRLREFLHRGEKKNSSSGISGSQRRYIGVMMLTLSPSILAELQLREPSFPDVQHGVLIHKVILGSPAHRAGLRPGDVILAIGEQMVQNAEDVYEAVRTQSQLAVQIRRGRETLTLYVTPEVTE
On to B3, for which the “enhancement of TRAIL-induced apoptosis” value with MCF-7 cells [4] is on record as “enhanced TRAIL-induced apoptosis in these cells several folds above the GFP transfected control cells”.

B4: TRAIL: apoptotic stimulus acting by TRAIL-receptor ligation (protein, UniProt P50591 1-281, looked up)
Tumor necrosis factor ligand …: MAMMEVQGGPSLGQTCVLIVIFTVLLQSLCVAVTYVYFTNELKQMQDKYSKSGIACFLKEDDSYWDPNDEESMNSPCWQVKWQLRQLVRKMILRTSEETISTVQEKQQNISPLVRERGPQRVAAHITGTRGRSNTLSSPNSKNEKALGRKINSWESSRSGHSFLSNLHLRNGELVIHEKGFYYIYSQTYFRFQEEIKENTKNDKQMVQYIYKYTSYPDPILLMKSARNSCWSKDAEYGLYSIYQGGIFELKENDRIFVSVTNEHLIDMDHEASFFGAFLVG
Consider B4, for which the “immunofluorescence staining pattern of Omi” value in the assay with MCF-7 cells [5] is listed as “showed diffused immunofluorescence staining of Omi”.
